Measurements as given in US20070131547A1.

What was measured:
Test in all cases: cell-based or functional assay
[1] = target: T1, ecoISO-Dzip2 (xylose isomerase derived from Escherichia coli, Dzip2 association site fused at the C-terminal side) (Escherichia coli) (UniProt B1X8I1)
T1 sequence: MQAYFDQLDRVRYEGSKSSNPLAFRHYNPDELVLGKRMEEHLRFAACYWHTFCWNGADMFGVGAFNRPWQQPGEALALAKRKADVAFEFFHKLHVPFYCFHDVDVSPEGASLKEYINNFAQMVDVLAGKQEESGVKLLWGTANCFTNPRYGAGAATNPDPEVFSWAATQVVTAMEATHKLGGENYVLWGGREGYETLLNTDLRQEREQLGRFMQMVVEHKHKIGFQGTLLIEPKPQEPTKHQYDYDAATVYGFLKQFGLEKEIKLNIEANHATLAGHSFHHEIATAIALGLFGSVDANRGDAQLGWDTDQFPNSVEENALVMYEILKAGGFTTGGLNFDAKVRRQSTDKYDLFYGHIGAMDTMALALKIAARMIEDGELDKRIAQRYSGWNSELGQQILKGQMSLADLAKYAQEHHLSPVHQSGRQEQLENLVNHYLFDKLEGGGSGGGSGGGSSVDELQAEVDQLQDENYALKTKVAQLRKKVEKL

[2] = target: ppuDp-Jun (diaphorase derived from Pseudomonas putida, Jun association site fused at the C-terminal side) (Pseudomonas putida)
[3] = target: phoDp-Jun (diaphorase derived from Pyrococcus horikoshii, Jun association site fused at the C-terminal side) (Pyrococcus horikoshii)
[4] = target: goxDp-Dzip2 (diaphorase derived from Gluconobacter oxydans, Dzip2 association site fused at the C-terminal side) (Gluconobacter oxydans)
[5] = target: T2, goxALDH-Dzip2 (aldehyde dehydrogenase derived from Gluconobacter oxydans, Dzip2 association site fused at the C-terminal side) (Gluconobacter oxydans)
T2 sequence: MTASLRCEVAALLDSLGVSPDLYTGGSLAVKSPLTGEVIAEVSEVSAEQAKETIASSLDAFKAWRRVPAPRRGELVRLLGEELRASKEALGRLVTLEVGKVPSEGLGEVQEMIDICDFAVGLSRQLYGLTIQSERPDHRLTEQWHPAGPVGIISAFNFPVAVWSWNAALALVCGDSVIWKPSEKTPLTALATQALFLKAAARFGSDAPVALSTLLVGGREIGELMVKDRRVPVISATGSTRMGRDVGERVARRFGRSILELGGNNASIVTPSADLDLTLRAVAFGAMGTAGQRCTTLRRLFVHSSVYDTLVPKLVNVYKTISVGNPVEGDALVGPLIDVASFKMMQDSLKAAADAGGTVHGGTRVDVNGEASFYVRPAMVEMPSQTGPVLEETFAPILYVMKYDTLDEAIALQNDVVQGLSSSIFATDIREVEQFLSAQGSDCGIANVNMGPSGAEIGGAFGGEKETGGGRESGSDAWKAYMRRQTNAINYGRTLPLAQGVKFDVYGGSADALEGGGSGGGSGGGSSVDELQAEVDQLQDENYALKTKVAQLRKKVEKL

B1: His-busGDH-Dzip1 (glucose dehydrogenase derived from Bacillus subtilis, His tag, Dzip1 association site fused at the C-terminal side) (enzyme)
chain: MGSSHHHHHHSQDPYPDLKGKVVAITGAASGLGKAMAIRFGKEQAKVVINYYSNKQDPNEVKEEVIKAGGEAVVVQGDVTKEEDVKNIVQTAIKEFGTLDIMINNAGLENPVPSHEMPLKDWDKVIGTNLTGAFLGSREAIKYFVENDIKGNVINMSSVHEVIPWPLFVHYAASKGGIKLMTETLALEYAPKGIRVNNIGPGAINTPINAEKFADPKQKADVESMIPMGYIGEPEEIAAVAAWLASKEASYVTGITLFADGGMTQYPSFQAGRGKLGGGSGGGSGGGSTVAQLEEKVKTLRAQNYELKSRVQRLREQVAQLA
For B1, which maximum electric power (fructose fuel cell) [1] is on record?
Its maximum electric power (fructose fuel cell) is 101 µW/cm^2.

What about the shortcircuit current density (fructose fuel cell) [1] of the same binder?
The shortcircuit current density (fructose fuel cell) was 1110 µA/cm^2.

B2: His-busGDH-Fos (glucose dehydrogenase derived from Bacillus subtilis, His tag, Fos association site fused at the C-terminal side) (enzyme)
chain: MGSSHHHHHHSQDPYPDLKGKVVAITGAASGLGKAMAIRFGKEQAKVVINYYSNKQDPNEVKEEVIKAGGEAVVVQGDVTKEEDVKNIVQTAIKEFGTLDIMINNAGLENPVPSHEMPLKDWDKVIGTNLTGAFLGSREAIKYFVENDIKGNVINMSSVHEVIPWPLFVHYAASKGGIKLMTETLALEYAPKGIRVNNIGPGAINTPINAEKFADPKQKADVESMIPMGYIGEPEEIAAVAAWLASKEASYVTGITLFADGGMTQYPSFQAGRGKLGGGSGGGSLTDTLQAETDQLEDKKSALQTEIANLLKEKEKLEFILAAY
For B2, which maximum electric power (glucose fuel cell) [2] is on record?
Its maximum electric power (glucose fuel cell) is 101 µW/cm^2.

What about the shortcircuit current density (glucose fuel cell) [2] of the same binder?
Its shortcircuit current density (glucose fuel cell) is 988 µA/cm^2.

B3: His-pfuGDH-Fos (glucose dehydrogenase derived from Pyrococcus furiosus, His tag, Fos association site fused at the C-terminal side) (enzyme)
chain: MGSSHHHHHHSQDPNILITASSRGIGFNVAKELLKKGHRVVISSSNEKNLEKALEELKEYEKVYPIKADLSKKEEIKNMVEKAWEILGKIDVLVWNAPNVKCEPCMIHELDYEDWVEGALLHIIAPGYLTTLLLNKWLKNNTRGIIIYLSSASVLEPMPPLLLADSTRAGLIQLAKGISRAYGKRGIRAYTVLLGSFDTPGARENLRRLAEKRGVDPEELWKKEVIERTPLQRTGKWEELGELIEFLLSDNAEYMLGSTILFDGAMTRSVLLKLGGGSGGGSLTDTLQAETDQLEDKKSALQTEIANLLKEKEKLEFILAAY
How did the maximum electric power (glucose fuel cell) [3] turn out when B3 was run?
Its maximum electric power (glucose fuel cell) is 126 µW/cm^2.

What about the shortcircuit current density (glucose fuel cell) [3] of the same binder?
Its shortcircuit current density (glucose fuel cell) is 1320 µA/cm^2.

B4: His-sceADH-Fos (alcohol dehydrogenase derived from Saccharomyces cerevisiae, His tag, Fos association site fused at the C-terminal side) (enzyme)
chain: MGSSHHHHHHSQDPPSQVIPEKQKAIVFYETDGKLEYKDVTVPEPKPNEILVHVKYSGVCHSDLHAWHGDWPFQLKFPLIGGHEGAGVVVKLGSNVKGWKVGDFAGIKWLNGTCMSCEYCEVGNESQCPYLDGTGFTHDGTFQEYATADAVQAAHIPPNVNLAEVAPILCAGITVYKALKRANVIPGQWVTISGACGGLGSLAIQYALAMGYRVIGIDGGNAKRKLFEQLGGEIFIDFTEEKDIVGAIIKATNGGSHGVINVSVSEAAIEASTRYCRPNGTVVLVGMPAHAYCNSDVFNQVVKSISIVGSCVGNRADTREALDFFARGLIKSPIHLAGLSDVPEIFAKMEKGEIVGRYVVETSKKLGGGSGGGSLTDTLQAETDQLEDKKSALQTEIANLLKEKEKLEFILAAY
Which results are given for B4?
maximum electric power (alcohol fuel cell) [2]: 80 µW/cm^2; shortcircuit current density (alcohol fuel cell) [2]: 821 µA/cm^2

B5: His-lplLDH-Dzip1 (lactic acid dehydrogenase derived from Lactobacillus plantarum, His tag, Dzip1 association site fused at the C-terminal side) (enzyme)
chain: MGSSHHHHHHSQDPSSMPNHQKVVLVGDGAVGSSYAFAMAQQGIAEEFVIVDVVKDRTKGDALDLEDAQAFTAPKKIYSGEYSDCKDADLVVITAGAPQKPGESRLDLVNKNLNILSSIVKPVVDSGFDGIFLVAANPVDILTYATWKFSGFPKDRVIGSGTSLDSSRLRVALGKQFNVDPRSVDAYIMGEHGDSEFAAYSTATIGTRPVRDVAKEQGVSDEDLAKLEDGVRNKAYDIINLKGATFYGIGTALMRISKAILRDENAVLPVGAYMDGQYGLNDIYIGTPAVIGGTGLKQIIESPLSADELKKMQDSAATLKKVLNDGLAELENKKLGGGSGGGSGGGSTVAQLEEKVKTLRAQNYELKSRVQRLREQVAQLA
Which results are given for B5?
maximum electric power (lactic acid fuel cell) [4]: 121 µW/cm^2; shortcircuit current density (lactic acid fuel cell) [4]: 1330 µA/cm^2

B6: His-sceADH-Dzip1 (alcohol dehydrogenase derived from Saccharomyces cerevisiae, His tag, Dzip1 association site fused at the C-terminal side) (enzyme)
chain: MGSSHHHHHHSQDPPSQVIPEKQKAIVFYETDGKLEYKDVTVPEPKPNEILVHVKYSGVCHSDLHAWHGDWPFQLKFPLIGGHEGAGVVVKLGSNVKGWKVGDFAGIKWLNGTCMSCEYCEVGNESQCPYLDGTGFTHDGTFQEYATADAVQAAHIPPNVNLAEVAPILCAGITVYKALKRANVIPGQWVTISGACGGLGSLAIQYALAMGYRVIGIDGGNAKRKLFEQLGGEIFIDFTEEKDIVGAIIKATNGGSHGVINVSVSEAAIEASTRYCRPNGTVVLVGMPAHAYCNSDVFNQVVKSISIVGSCVGNRADTREALDFFARGLIKSPIHLAGLSDVPEIFAKMEKGEIVGRYVVETSKKLGGGSGGGSGGGSTVAQLEEKVKTLRAQNYELKSRVQRLREQVAQLA
With B6 as the binder, how does the maximum electric power (alcohol fuel cell) [5] read?
Its maximum electric power (alcohol fuel cell) is 173 µW/cm^2.

What about the shortcircuit current density (alcohol fuel cell) [5] of the same binder?
Its shortcircuit current density (alcohol fuel cell) is 1620 µA/cm^2.

B7: His-ppuMDH-Dzip1 (malic acid dehydrogenase derived from Pseudomonas putida, His tag, Dzip1 association site fused at the C-terminal side) (enzyme)
chain: MGSSHHHHHHSQDPSDLKTAALEYHAQPRPGKLSVELSKPTATARDLALAYSPGVAEPVREIGRDPELAYKYTGKGNLVAVISDGTAILGLGDLGPLASKPVMEGKGVLFKRFAGIDVFDIEVESESPQAFIDTVRRISITFGGINLEDIKAPECFEIERTLIEQCDIPVFHDDQHGTAIVTAAGMINALEIAGKKLEEAKIVCLGAGAAAISCMKLLVSMGAKVENIFMIDRSGVIHAGRDDLNQYKAQFAHATDKRTLADALDGADVFVGLSGPNLLSPEGLKSMAANPIVFACSNPDPEISPELAHATRNDVIMATGRSDYPNQVNNVLGFPFIFRGALDVRAKRINEEMKIAAAIALKDLAKLPVPKEVCEAYGVEGLEFGREYIIPKPLDARLITVVSDAVAKAAIESGVATLPYPKHYPLTSVDEVFNGKLGGGSGGGSGGGSTVAQLEEKVKTLRAQNYELKSRVQRLREQVAQLA
Which results are given for B7?
maximum electric power (malic acid fuel cell) [4]: 99 µW/cm^2; shortcircuit current density (malic acid fuel cell) [4]: 1030 µA/cm^2
